Data: article doi:10.1101/552281 (bioRxiv, 2019)
Read-outs that look alike come from different tables or passages of the source.

B1: full-length human phenylalanine hydroxylase (enzyme, UniProt P00439 1-452, looked up)
chain: MSTAVLENPGLGRKLSDFGQETSYIEDNCNQNGAISLIFSLKEEVGALAKVLRLFEENDVNLTHIESRPSRLKKDEYEFFTHLDKRSLPALTNIIKILRHDIGATVHELSRDKKKDTVPWFPRTIQELDRFANQILSYGAELDADHPGFKDPVYRARRKQFADIAYNYRHGQPIPRVEYMEEEKKTWGTVFKTLKSLYKTHACYEYNHIFPLLEKYCGFHEDNIPQLEDVSQFLQTCTGFRLRPVAGLLSSRDFLGGLAFRVFHCTQYIRHGSKPMYTPEPDICHELLGHVPLFSDRSFAQFSQEIGLASLGAPDEYIEKLATIYWFTVEFGLCKQGDSIKAYGAGLLSSFGELQYCLSEKPKLLPLELEKTAIQNYTVTEFQPLYYVAESFNDAKEKVRNFAATIPRPFSVRYDPYTQRIEVLDNTQQLKILADSINSEIGILCSALQKIK
B2: hPAH mutant S23A (enzyme, human, UniProt P00439 1-452, looked up)
chain: MSTAVLENPGLGRKLSDFGQETAYIEDNCNQNGAISLIFSLKEEVGALAKVLRLFEENDVNLTHIESRPSRLKKDEYEFFTHLDKRSLPALTNIIKILRHDIGATVHELSRDKKKDTVPWFPRTIQELDRFANQILSYGAELDADHPGFKDPVYRARRKQFADIAYNYRHGQPIPRVEYMEEEKKTWGTVFKTLKSLYKTHACYEYNHIFPLLEKYCGFHEDNIPQLEDVSQFLQTCTGFRLRPVAGLLSSRDFLGGLAFRVFHCTQYIRHGSKPMYTPEPDICHELLGHVPLFSDRSFAQFSQEIGLASLGAPDEYIEKLATIYWFTVEFGLCKQGDSIKAYGAGLLSSFGELQYCLSEKPKLLPLELEKTAIQNYTVTEFQPLYYVAESFNDAKEKVRNFAATIPRPFSVRYDPYTQRIEVLDNTQQLKILADSINSEIGILCSALQKIK
B3: hPAH mutant Y377F (enzyme, human, UniProt P00439 1-452, looked up)
chain: MSTAVLENPGLGRKLSDFGQETSYIEDNCNQNGAISLIFSLKEEVGALAKVLRLFEENDVNLTHIESRPSRLKKDEYEFFTHLDKRSLPALTNIIKILRHDIGATVHELSRDKKKDTVPWFPRTIQELDRFANQILSYGAELDADHPGFKDPVYRARRKQFADIAYNYRHGQPIPRVEYMEEEKKTWGTVFKTLKSLYKTHACYEYNHIFPLLEKYCGFHEDNIPQLEDVSQFLQTCTGFRLRPVAGLLSSRDFLGGLAFRVFHCTQYIRHGSKPMYTPEPDICHELLGHVPLFSDRSFAQFSQEIGLASLGAPDEYIEKLATIYWFTVEFGLCKQGDSIKAYGAGLLSSFGELQYCLSEKPKLLPLELEKTAIQNFTVTEFQPLYYVAESFNDAKEKVRNFAATIPRPFSVRYDPYTQRIEVLDNTQQLKILADSINSEIGILCSALQKIK
B4: hPAH mutant Y138F (enzyme, human, UniProt P00439 1-452, looked up)
chain: MSTAVLENPGLGRKLSDFGQETSYIEDNCNQNGAISLIFSLKEEVGALAKVLRLFEENDVNLTHIESRPSRLKKDEYEFFTHLDKRSLPALTNIIKILRHDIGATVHELSRDKKKDTVPWFPRTIQELDRFANQILSFGAELDADHPGFKDPVYRARRKQFADIAYNYRHGQPIPRVEYMEEEKKTWGTVFKTLKSLYKTHACYEYNHIFPLLEKYCGFHEDNIPQLEDVSQFLQTCTGFRLRPVAGLLSSRDFLGGLAFRVFHCTQYIRHGSKPMYTPEPDICHELLGHVPLFSDRSFAQFSQEIGLASLGAPDEYIEKLATIYWFTVEFGLCKQGDSIKAYGAGLLSSFGELQYCLSEKPKLLPLELEKTAIQNYTVTEFQPLYYVAESFNDAKEKVRNFAATIPRPFSVRYDPYTQRIEVLDNTQQLKILADSINSEIGILCSALQKIK
B5: ΔN13-hPAH (human phenylalanine hydroxylase lacking the N-terminal 13 residues) (enzyme, UniProt P00439 14-452, looked up)
chain: KLSDFGQETSYIEDNCNQNGAISLIFSLKEEVGALAKVLRLFEENDVNLTHIESRPSRLKKDEYEFFTHLDKRSLPALTNIIKILRHDIGATVHELSRDKKKDTVPWFPRTIQELDRFANQILSYGAELDADHPGFKDPVYRARRKQFADIAYNYRHGQPIPRVEYMEEEKKTWGTVFKTLKSLYKTHACYEYNHIFPLLEKYCGFHEDNIPQLEDVSQFLQTCTGFRLRPVAGLLSSRDFLGGLAFRVFHCTQYIRHGSKPMYTPEPDICHELLGHVPLFSDRSFAQFSQEIGLASLGAPDEYIEKLATIYWFTVEFGLCKQGDSIKAYGAGLLSSFGELQYCLSEKPKLLPLELEKTAIQNYTVTEFQPLYYVAESFNDAKEKVRNFAATIPRPFSVRYDPYTQRIEVLDNTQQLKILADSINSEIGILCSALQKIK

Key:
[1] = target: catalytic domain of human phenylalanine hydroxylase (hPAH-CD) (human); assay: crystal structure
cryo-EM structure = target: the molecule itself; assay: cryo-EM structure
[2] = target: the molecule itself
crystal structure = target: the molecule itself; assay: crystal structure

| Molecule | stoichiometry N [2] | also measured |
| --- | --- | --- |
| catalytic domain of human phenylalanine hydroxylase (hPAH-CD) (domain or fragment) | – | stoichiometry N [1]: 2 |
| B1 | – | stoichiometry N (cryo-EM structure): 4 |
| B2 | 4 | – |
| B3 | 4 | – |
| B4 | 4 | – |
| B5 | – | stoichiometry N (crystal structure): 4 |
